{
  "source": "patent US20240376221A1",
  "binders": {"B1": {"name": "IgG1-CD134-RG7888 (antibody, INN chains, looked up, V domains shown)", "VH": "EVQLVQSGAEVKKPGASVKVSCKASGYTFTDSYMSWVRQAPGQGLEWIGDMYPDNGDSSYNQKFRERVTITRDTSTSTAYLELSSLRSEDTAVYYCVLAPRWYFSVWGQGTLVTVSS", "VL": "DIQMTQSPSSLSASVGDRVTITCRASQDISNYLNWYQQKPGKAPKLLIYYTSRLRSGVPSRFSGSGSGTDFTLTISSLQPEDFATYYCQQGHTLPPTFGQGTKVEIK", "modifications": "IgG1"}},
  "key": {"[1]": {"target": "recombinant human OX40 (Acro Biosystems, cat. no. OXO-H5224) (human) (UniProt P43489)", "sequence (P43489 29-216 limits assumed)": "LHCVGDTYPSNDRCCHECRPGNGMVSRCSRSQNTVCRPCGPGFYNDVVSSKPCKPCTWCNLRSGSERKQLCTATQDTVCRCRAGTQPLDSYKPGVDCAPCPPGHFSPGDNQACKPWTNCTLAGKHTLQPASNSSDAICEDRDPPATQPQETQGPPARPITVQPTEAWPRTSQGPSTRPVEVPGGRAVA", "test": "BLI cross-block; competitor (immobilized 1st Ab): IgG1-CD134-IBI101"}, "[2]": {"target": "human OX40, cell surface-expressed (human) (UniProt P43489)", "sequence (P43489 29-277)": "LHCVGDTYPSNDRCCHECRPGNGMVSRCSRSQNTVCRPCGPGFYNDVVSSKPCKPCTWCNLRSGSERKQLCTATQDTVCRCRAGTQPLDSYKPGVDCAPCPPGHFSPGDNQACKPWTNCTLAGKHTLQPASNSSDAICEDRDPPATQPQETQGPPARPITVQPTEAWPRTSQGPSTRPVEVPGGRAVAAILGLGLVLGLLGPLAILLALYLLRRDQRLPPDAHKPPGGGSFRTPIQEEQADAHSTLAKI", "test": "flow cytometry, HEK293F cells with human OX40"}, "[3]": {"target": "recombinant human OX40 (Acro Biosystems, cat. no. OXO-H5224) (human) (UniProt P43489)", "test": "BLI cross-block; competitor (immobilized 1st Ab): IgG1-CD134-GBR830"}, "[4]": {"target": "recombinant human OX40 (Acro Biosystems, cat. no. OXO-H5224) (human) (UniProt P43489)", "test": "BLI cross-block; competitor (immobilized 1st Ab): IgG1-CD134-A4453"}, "[5]": {"target": "human OX40, cell surface-expressed (human) (UniProt P43489)", "test": "flow cytometry, activated CD8+ T cells, mean of 3 donors"}, "[6]": {"target": "recombinant human OX40 (Acro Biosystems, cat. no. OXO-H5224) (human) (UniProt P43489)", "test": "BLI cross-block; competitor (immobilized 1st Ab): IgG1-CD134-MEDI0562"}, "[7]": {"target": "human OX40, cell surface-expressed (human) (UniProt P43489)", "test": "flow cytometry, activated CD4+ T cells, mean of 3 donors"}, "[8]": {"target": "human OX40 with mouse CRD1 (human with mouse CRD1) (UniProt P43489)", "sequence (P43489 other isoform, or with tags, fused parts or gaps limits assumed)": "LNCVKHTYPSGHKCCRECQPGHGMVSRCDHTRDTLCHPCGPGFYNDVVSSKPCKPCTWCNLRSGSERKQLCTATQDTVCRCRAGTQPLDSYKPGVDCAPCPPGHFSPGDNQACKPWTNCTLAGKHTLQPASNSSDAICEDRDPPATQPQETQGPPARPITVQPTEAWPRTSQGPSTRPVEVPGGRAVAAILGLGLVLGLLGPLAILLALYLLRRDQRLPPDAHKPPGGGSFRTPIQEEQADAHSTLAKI", "test": "flow cytometry, ExpiCHO-S cells with human OX40 carrying mouse CRD1"}, "[9]": {"target": "human OX40, cell surface-expressed (human) (UniProt P43489)", "test": "flow cytometry, activated CD8+ T cells, donor 2"}, "[10]": {"target": "human OX40, cell surface-expressed (human) (UniProt P43489)", "test": "flow cytometry, activated CD8+ T cells, donor 3"}, "[11]": {"target": "recombinant human OX40 (Acro Biosystems, cat. no. OXO-H5224) (human) (UniProt P43489)", "test": "BLI cross-block; competitor (immobilized 1st Ab): IgG1-CD134-49B4-RRE"}, "[12]": {"target": "recombinant human OX40 (Acro Biosystems, cat. no. OXO-H5224) (human) (UniProt P43489)", "test": "BLI cross-block; competitor (immobilized 1st Ab): IgG1-CD134-003"}, "[13]": {"target": "human OX40 with mouse CRD2 (human with mouse CRD2) (UniProt P43489)", "sequence (P43489 other isoform, or with tags, fused parts or gaps limits assumed)": "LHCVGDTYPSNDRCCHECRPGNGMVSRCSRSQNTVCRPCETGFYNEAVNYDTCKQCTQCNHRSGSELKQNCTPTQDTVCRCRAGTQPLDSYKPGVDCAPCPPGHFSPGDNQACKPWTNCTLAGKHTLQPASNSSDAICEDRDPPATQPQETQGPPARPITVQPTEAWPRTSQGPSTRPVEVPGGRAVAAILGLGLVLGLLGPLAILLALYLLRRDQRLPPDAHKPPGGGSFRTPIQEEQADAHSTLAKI", "test": "flow cytometry, ExpiCHO-S cells with human OX40 carrying mouse CRD2"}, "[14]": {"target": "recombinant human OX40 (Acro Biosystems, cat. no. OXO-H5224) (human) (UniProt P43489)", "test": "BLI cross-block; competitor (immobilized 1st Ab): IgG1-CD134-012"}, "[15]": {"target": "human OX40, cell surface-expressed (human) (UniProt P43489)", "test": "flow cytometry, activated CD8+ T cells, donor 1"}, "[16]": {"target": "human OX40, cell surface-expressed (human) (UniProt P43489)", "test": "flow cytometry, activated CD4+ T cells, donor 3"}, "[17]": {"target": "recombinant human OX40 (Acro Biosystems, cat. no. OXO-H5224) (human) (UniProt P43489)", "test": "BLI cross-block; competitor (immobilized 1st Ab): IgG1-CD134-RG7888"}, "[18]": {"target": "recombinant human OX40 (Acro Biosystems, cat. no. OXO-H5224) (human) (UniProt P43489)", "test": "BLI cross-block; competitor (immobilized 1st Ab): IgG1-CD134-Hu106"}, "[19]": {"target": "recombinant human OX40 (Acro Biosystems, cat. no. OXO-H5224) (human) (UniProt P43489)", "test": "BLI cross-block; competitor (immobilized 1st Ab): IgG1-CD134-007"}, "[20]": {"target": "human OX40, cell surface-expressed (human) (UniProt P43489)", "test": "flow cytometry, ExpiCHO-S cells with human OX40"}, "[21]": {"target": "human OX40, cell surface-expressed (human) (UniProt P43489)", "test": "flow cytometry, activated CD4+ T cells, donor 1"}, "[22]": {"target": "recombinant human OX40 (Acro Biosystems, cat. no. OXO-H5224) (human) (UniProt P43489)", "test": "BLI cross-block; competitor (immobilized 1st Ab): IgG1-CD134-11D4"}, "[23]": {"target": "recombinant human OX40 (Acro Biosystems, cat. no. OXO-H5224) (human) (UniProt P43489)", "test": "BLI cross-block; competitor (immobilized 1st Ab): IgG1-CD134-ABBV368"}, "[24]": {"target": "human OX40 with mouse CRD4 (human with mouse CRD4) (UniProt P43489)", "sequence (P43489 other isoform, or with tags, fused parts or gaps limits assumed)": "as the sequence (P43489 29-277) above, with D109N, A122S, H125Q, L127R, Q128H, N132D, S134L, I137V counted along it", "test": "flow cytometry, ExpiCHO-S cells with human OX40 carrying mouse CRD4"}, "[25]": {"target": "recombinant human OX40 (Acro Biosystems, cat. no. OXO-H5224) (human) (UniProt P43489)", "test": "BLI cross-block; competitor (immobilized 1st Ab): IgG1-CD134-h3C8"}, "[26]": {"target": "recombinant human OX40 (Acro Biosystems, cat. no. OXO-H5224) (human) (UniProt P43489)", "test": "BLI cross-block; competitor (immobilized 1st Ab): IgG1-CD134-SF2"}, "[27]": {"target": "recombinant human OX40 (Acro Biosystems, cat. no. OXO-H5224) (human) (UniProt P43489)", "test": "BLI cross-block; competitor (immobilized 1st Ab): IgG1-CD134-003-HC6LC2-RR"}, "[28]": {"target": "cynomolgus monkey OX40, cell surface-expressed (cynomolgus monkey)", "sequence (P43489 other isoform, or with tags, fused parts or gaps limits assumed)": "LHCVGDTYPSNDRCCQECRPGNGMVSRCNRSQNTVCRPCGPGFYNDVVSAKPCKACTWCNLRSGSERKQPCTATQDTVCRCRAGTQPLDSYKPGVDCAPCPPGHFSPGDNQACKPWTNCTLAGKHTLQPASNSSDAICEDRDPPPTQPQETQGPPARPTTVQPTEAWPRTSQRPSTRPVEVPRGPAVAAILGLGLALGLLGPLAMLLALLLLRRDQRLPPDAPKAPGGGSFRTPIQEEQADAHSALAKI", "test": "flow cytometry, HEK293F cells with cynomolgus monkey OX40"}, "[29]": {"target": "recombinant human OX40 (Acro Biosystems, cat. no. OXO-H5224) (human) (UniProt P43489)", "test": "BLI, Ab on AHC sensor, OX40 analyte"}, "[30]": {"target": "recombinant cynomolgus monkey OX40 (Acro Biosystems, cat. no. OXO-C5220) (cynomolgus monkey)", "sequence (P43489 other isoform, or with tags, fused parts or gaps limits assumed)": "as the sequence (P43489 29-216 limits assumed) above, with H16Q, S29N, S50A, P55A, L70P, A145P, I159T, G173R, G183R, R185P counted along it", "test": "BLI, Ab on AHC sensor, OX40 analyte"}, "[31]": {"target": "human OX40, cell surface-expressed (human) (UniProt P43489)", "test": "flow cytometry, activated CD4+ T cells, donor 2"}, "[32]": {"target": "recombinant human OX40 (Acro Biosystems, cat. no. OXO-H5224) (human) (UniProt P43489)", "test": "BLI cross-block; competitor (immobilized 1st Ab): IgG1-CD134-INCAGN1949"}},
  "data": [
    {"binder": "B1", "values": [
      {"measurement": "corrected association response", "setting": "[1]", "result": 0.23, "unit": "nm"},
      {"measurement": "EC50 (read off the curve)", "setting": "[2]", "result": 0.05, "unit": "µg/mL"},
      {"measurement": "corrected association response", "setting": "[3]", "result": 0.26, "unit": "nm"},
      {"measurement": "corrected association response", "setting": "[4]", "result": 0.47, "unit": "nm"},
      {"measurement": "EC50", "setting": "[5]", "result": 0.0451, "unit": "µg/mL"},
      {"measurement": "corrected association response", "setting": "[6]", "result": 0.02, "unit": "nm"},
      {"measurement": "EC50", "setting": "[7]", "result": 0.0354, "unit": "µg/mL"},
      {"measurement": "EC50 (read off the curve)", "setting": "[8]", "result": 0.02, "unit": "µg/mL"},
      {"measurement": "EC50", "setting": "[9]", "result": 0.0332, "unit": "µg/mL"},
      {"measurement": "EC50", "setting": "[10]", "result": 0.0393, "unit": "µg/mL"},
      {"measurement": "corrected association response", "setting": "[11]", "result": 0.02, "unit": "nm"},
      {"measurement": "corrected association response", "setting": "[12]", "result": 0.66, "unit": "nm"},
      {"measurement": "EC50 (read off the curve)", "setting": "[13]", "result": 0.01, "unit": "µg/mL"},
      {"measurement": "corrected association response", "setting": "[14]", "result": 0.54, "unit": "nm"},
      {"measurement": "EC50", "setting": "[15]", "result": 0.0627, "unit": "µg/mL"},
      {"measurement": "EC50", "setting": "[16]", "result": 0.0316, "unit": "µg/mL"},
      {"measurement": "corrected association response", "setting": "[17]", "result": 0.02, "unit": "nm"},
      {"measurement": "corrected association response", "setting": "[18]", "result": 0.1, "unit": "nm"},
      {"measurement": "corrected association response", "setting": "[19]", "result": 0.47, "unit": "nm"},
      {"measurement": "EC50 (read off the curve)", "setting": "[20]", "result": 0.007, "unit": "µg/mL"},
      {"measurement": "EC50", "setting": "[21]", "result": 0.0453, "unit": "µg/mL"},
      {"measurement": "corrected association response", "setting": "[22]", "result": 0.11, "unit": "nm"},
      {"measurement": "corrected association response", "setting": "[23]", "result": 0.01, "unit": "nm"},
      {"measurement": "EC50 (read off the curve)", "setting": "[24]", "result": 0.01, "unit": "µg/mL"},
      {"measurement": "corrected association response", "setting": "[25]", "result": 0.41, "unit": "nm"},
      {"measurement": "corrected association response", "setting": "[26]", "result": 0.01, "unit": "nm"},
      {"measurement": "corrected association response", "setting": "[27]", "result": 1.38, "unit": "nm"},
      {"measurement": "EC50 (read off the curve)", "setting": "[28]", "result": 0.05, "unit": "µg/mL"},
      {"measurement": "Kd", "setting": "[29]", "result": 0.23, "unit": "nM"},
      {"measurement": "koff", "setting": "[29]", "result": "8.4e-05", "unit": "s⁻¹"},
      {"measurement": "kon", "setting": "[29]", "result": 360000, "unit": "M⁻¹ s⁻¹"},
      {"measurement": "Kd", "setting": "[30]", "result": 0.61, "unit": "nM"},
      {"measurement": "koff", "setting": "[30]", "result": 0.00014, "unit": "s⁻¹"},
      {"measurement": "kon", "setting": "[30]", "result": 240000, "unit": "M⁻¹ s⁻¹"},
      {"measurement": "EC50", "setting": "[31]", "result": 0.0292, "unit": "µg/mL"},
      {"measurement": "corrected association response", "setting": "[32]", "result": 0.02, "unit": "nm"}
    ]}
  ]
}
